The data set is described as follows: label from the status in PepcDB records.
“MLAAGMSRRMGFNKLLAPLCGKRVLWHVLELVARFEGVLEGAVVVTSGEVADVLRRERPPGRRGLFRVVVNREQWRGLSHSIRLGVEASPGARAYLFFNGDRPFVSKHTVARVLALYMARRPLIAAPMAGGAIAPPVVVDSRLRGELLRLSGDTGVRSLFGKYRDSLAVVEVDDPGLHLDVDTPEDLERASKMCSQLGGGPREKPLEHHHHHH”: the protein production entry is reported as “failed”. As for “MLAERGANITGLDISGPMLQQGREKAQATGVDDRVEFMRGDAARLPFPDDHFDTVFAMRFFHLADTPAAFLAEMRRVSKEQVFFDTFNRFSTRSIYNWALPMGSRLYSRWEIDRLLDGAGLELTDANHDWLLPYGFYRKIPNELAASFRSLDTALGGTPLGEKLASVSYWNTHVLEHHHHHH”, the protein production entry was “failed”. To “MLAGADKVFLYAKPEQIEAFVAAAQSAGVRQVVLLSSVSVVMATSEQNPIARMHRTVELAIERSGLDWTFIRPGMFATNARWWWGESIRGEGVVRLPYPEAQNAPVHEKDMAALAVTALTEPGHSHQAYTVHGSESLTLRRQVEHIGEALGRPIRVETVSVEQAREEFAEKAPSNVAEALLRMWAAADGVPAPVSVIVDRITGRPAHTFAQWAADHADDFR” belongs “failed”. To “MLAIFQKAFAHPPEELNSPASHFSGKTPKLPGETLSDFLSHHQNNAFSMNFGDSAVLAYARQETSLRQRLFCGLDGIYCMFLGRLNNLCTLNRQYGLSGKNSNEAMFVIEAYRTLRDRGPYPADQVLRGLEGSFAFVVYDTQTSSVFSALSSDGGESLYWGISGDGSVVMSDDIQIIKQGCAKSFAPFPNGCMFHSETGLKSFDHPTNMMKAMPRIDSEGVLCGASFKVDACSKINSIPRRGSEANWALANSR” belongs “failed”; to “MLAILGFVMMIVFMYLIMSNRLSALIALIVVPIVFALISGFGKDLGEMMIQGVTDLAPTGIMLLFAILYFGIMIDSGLFDPLIAKILSFVKGDPFKIAVGTAVLTMTISLDGDGTTTYMITIRAMLPLYKRLGMNRLVLAGIAMLGSGVMNIIPWGEPTARVLASLKLDTSEVFTPLIPAMIAGILWVIAVAYILGKKERKRLGVISIDHAPSSDPEAAPLKRPALQWFNLLLTVALMAALITSLLPLPVLFMTAFAVALMVNYPNVKEQQKRISAHAGNALNVVSMVFAAGIFTGILSGTKMVDAMAHSTRSLIPDAMGPHLPLITAIVSMPFTFFMSNDAFYFGVLPIIAEAASAYGIDAAEIGRASLLGQPVHLLSPLVPSTYLLVGMAGVSFGDHQKFTIKWAVGTTIVMTIAALLIGIISF”, “failed”. For the sequence “MLAMHGSKEKMMTSYQTIIQNHQPLAPARYTAKRIIKNDAEALQIATELSQSFKEKSIQRDAERVLPFDEIEAFSQSGLWAITVPKRYGGAEVSSLTLAKIIALFSGVDGSIGQIPQNHFYALEVLRNTGTEQQKQRLYQEVLSGLRLGNALAEFKPKNASLKQTQIKAIETGYVINGEKFYCTGSLFAHRIPTLVIDEEGREYLAFVRSDSEGLSLIDNWTGFGQRVTGSGGVKFTQVFVAAEDVIPFDSAFQHPTLVGPFAQLMHAAIEVGIARAAFEEALKRVHAARPWIDSNVDAAAQDPLTIYEIGRVAADVHASEALLKHAALTIDEVRLNTNVETIAKASIAVAKIRAHSTETALKASSKLIELAGSRGSQSVDGLDRFWRNARVHTLHDAARWKYYFIGNYVLNDIFPPRRGTL”, the protein production entry is “failed”. “MLAVLIGQHGEYLLIFLVSPGQFQEGVMTVHDHWQMDASAPELYERYLVPAITSVWADDLLDRIDPAKGECVLDVACGTGVVARRLAERGHVGRLVGIDLNGAMLAVARAKSSDVEWTEGSALDLPFATRSFDVVLCQLGLQFFPDRPQALREMARVLKPSGRLGLSVYSAIEHTPAANAFVQALDGFLGPESSRTKRAEHLTCNADEVGNWVRQAGFDRVGVETVTKQIGFPSALDYVRFQLTATPMAALLTREDDAGRERTIAAIADDVAARLDPSILANGRLTFPQESFVVVASLR”: the protein production entry is on record as “failed”.

Take “MLAYQGLFQNGLMQVSPSYFSQTYLLGDVNYQTVGLDDKGAIVEKYSDLINSLDDKTNFQLTIFNQKVNLEKFRKSILYPLQEDGFDTYRDELNRMMDANLEAGENNFSAVKFLSFGKSDQTPKLAFRSLSQIGEYFKSGFSEIDVSLGLLGGEERVNVLADMLRGENHLPFSYKDLTLSGQSTKHFIAPTYLSFKHKNHIELDDRLLQIVYVRDYGMELGDKFIRDLMQSDLEVMISLHAKGSTKSETMTKLRTKKTLMESQKIGEQQKMARTGIYLEKVGHVLENNIDEAEALLQTMTQTGDKLFDTVFLIGVLADTEDQLKQSLDIIKQVAGSNDMIIDNLTYMQEAAFNSLLPFGKNYLEGVSRSLLTSNIAVNAPWTSVDIHDKGGKFYGINQISSNIISIDRGKLNTPSGLILGTSGAGKGMATKHEIISTKLKEADSDTEIIIVDPENEYSIIGQAFGGESIDIAPDSTTFLNVLELSDENMDEDPVKVKSEFLLSWIGKLLDRKMDGREKSLIDRVTRLTYKHFDTPSLVEWVFVLSQQPEQEAKDLALDMELYVEGSLDIFSHRTNIKTDSHFLIYNVKKLGDELKQIALMVIFDQIWNRVVKNQKLGKKTWIYFDEMQLLLLDKYASDFFFKLWSRVRKYGAIPTGITQNVETLLLDANGRRIIANSEFMILLKQAKSDREELVHMLGLSKELEKYLVNPEKGAGLIKAGSTVVPFKNKIPQHTKLFDIMSTDPEKMRTLEHHHHHH”: the protein production result is “failed”. As to “MLCRKNSSLVDRGNVPVYLNVYDLTPINGYAYWLGLGVYHSGVEVHGIEYAYGAHEYPSTGIFEGEPKQCEGFTFRKSILIGKTDLGPLEVRATMEQLADNYKGSSYNLITKNCNHFCDETCIKLTGNPIPSWVNRLARIGKFSGFMCNCVLPATINATRFGNNRVNQDKSCEAENEKKKLTSVSSRERSTIATPSSSSSSPSVQVRGRSRKRRPRALQPSSPLTLGSSSV”, the protein production entry was “failed”. To “MLDAKTSTLLWAAETFTLAVLLGTLWLHRPSRRHNLYFAAGFLATGFGTVMVALRGDISSFLSIQVGNTLALSAFGFWLAGLLSLEQRKLGGWIAIPALLWIAGMFVPSVPEDMVARILLYHASAATGYFMLAGVLLGSRARASRSRKVLATILILQAFAGAIVASIVIPANAAVPNAIPMTSALSISGMLGFTAIIMISAKIIMEDTEIRLHRLAMTDHLTGVLNRRGLLEEFEHIKKRSHGSDRYVALVLFDIDHFKKINDRYGHQSGDAVLVHFCNIAQRVIGERGLFVRMGGEEFALVAEVESPSSTVTLAEAIRSNLRLSKITARNEAIKVTTSVGISEAMIKDADLSVMMTEADRALYAAKKAGRNRTVIHVNSANVVVPAPDRDENPMDNNADRQVAALNRISAIASR” belongs “failed”; to “MLDDVLALIREHDRFFITTHLGPDGDAVGSQLALGRFLEKMGKSVAMVNADEVDYNLDWMPGAGDIAVFDGSLGQHEALAEAEVAFVLDTNDEERIGKVGSLVRDATATTVLVDHHLEPEHWFDVFFVREEAAATGELVYEIIDGLAPDLIDEGIATALYTAIMTDTGSFRYSSVTPALHRSVADILERGGIGPAPIHETIYDRKSMPGLRLLGRMLNRIRLRYNGQLGYSVVTQRMVEDTGASWDDKQGFVNYVLSIEDVKTALLFSETDDGAKISFRSEADVRVDQWARHFGGGGHRNAAGAYVKRPTFEKTIETVIDAASDYIAFDARHAPDDDLSPEDQSYLETLLDDPSDSPLEHHHHHH”, “failed”; to “MLDKNKFIQINLVPCHFCYSFLSYASILEAIMKFKNILVVLNPSNEKQYALARAVRLVEEQKNETKVKITALLSVYDLSYEMSALLSSEERSEMHQQVIEKHRHAVQYYLDKYANPEIELQSHIVWNSNEADAINEEVENNNYDLVVKYTKDEEKLTSLIFTPIDWQLLRKCPIPVLMVRDGDWKHPRRILVAVNVSGEQEYQDEFNQELVETGISLAENLNRGNVHLVAAYPSAPINMAIDLPEFNTSGYENGIRGQHLINMKALRQKFGIDEDHTHVREGFPEEVIPEVAKEIEAELVILGTVGRTGLSAALLGNTAEHVISKLSCNLLGIKPSKKDD”, “failed”. The value for “MLDPATIVAVPAPGRACGPCTLCCKVYDVPAVESPAGRWCRHVRSGGGCGIHAERPDHCRAFHCLWMTETWIGPEWRPDRAKMVLSLDPVTRFLNVQVDPGQAGAWKRAPYHDQLRRWAAASLPLQRYVLVHVNKVTTVVLPDRDVALGTFGPGDRLVGRERMTPAGMTADVEKVSQLA” was “failed”; that for “MLDRLRSIPVRGLFARLFSWLFFGLAFALVAATIVDVFELLNSDEPLMQAMINGVNGSIIALAVYELAMVIRSEYSGRSETHDIVTMMRRTLPRFISTVCVAMSLEGLIMIIKYSQLDLAGNLVYPVAIIASTALLLAALGVFLKMAPKEIGANGCDESCTTK” was “failed”.

On to “MLDSFEILKALKSLDLLKNAPSWWWPNALKFEALLGAVLTQNTKFEAVLKSLENLKNAFILENDDEINLKKIAYIEFSKLAECVRPSGFYNQKAKRLIDLSKNILKDFQSFENFKQEVTREWLLNQKGVGKESADAILCYVCAKEVMVVDKYSYLFLKKIGIEIEDYDELQHFFEKGVQENLNSALALYENTIPLAQLYARFHGKIVEFSKQKLELKL”, for which the protein production entry was “failed”.

Turning to “MLDSINRVLDRPDFGKLFLRVSFSVLMLFHGWHKLHGGIGFIEGMLTNAGLPAFVGYGVYVGEIIIPIMMILGIFTRPAALIFSFTMFVASLLVHSGDFLSLEKTGAWAVEGAAVFFFAGIAIALLGSGKYSVMSNPRWR”, the protein production result is listed as “failed”. As to “MLDVRARAALSGPLDRAAAMLDRPAVTPNRLTALGLLTGLASAGSAAAGWWPAAAALWLLSRLADGLDGPLARRRGTANSSGAGGFLDISADFLVYGAFVVGVAVGVGGPALPFLLVLLTYYVNGTAFLAFSSIAERTGRRGDGRLSGGRSLNFLGGLAEGGETIAVHTLWCLLPGFAHTIAWVWAAVVAVTAAHRVVTGYRQLR”, the protein production result is “failed”. With “MLEGEFLSVAELKDLTLSLASKFLNNLLASKLLVSKQLFIDRKKELGLLEERLKSGKAQFIVIYGRRRVGKTALILEFLRRHGGLYLLARETSEIENLERFSLRLAEYFNDSFLKKNPLRSLDAFFEYLSTKAEKPFIIAIDEFPYLVKGNKALPSILQEYWEMKLSKKKIFLIVSGSSVSMTERLLGYKSPLYGRRTAQLKLKPLDFFNAREFLPKYSLEDFVRVYGILGGTPAYLLEFSDEKSLEENLKSYFRVDSLLYGDALFILREELDEPRNYFAIMEAIARGNTTLGEIVNETGLERATVGKYLSVLIDLDLVRREVPITASRKSRKGRYYIADNYFAFWFRYVYPNADLIESGNGELLVDTVMDDIDHYTGEVFEGVAKEFLLRLNKSERLPFRFSRVGRWWYKNEEIDLVALNEREKKVLFIEVKWKDLSKREARGILKDLKRKAKLVGLDEWGKHYGLVAKSVRGKDEIKEEGWLAWDLEDIHRMAFLEHHHHHH”, the protein production result was “failed”. For “MLEHLIKISRRNWSSLKVIILAGGRGKRITLFKPFLVVCGKPLISWAFDAVNKLSDKVYLGINQSHPLFTIFKHSIFKIFPTPDISYENDVKYVVESLGPPILVLPVDIAFINNNIINNLIERCAVDMCTLKSYGSYLGVTYWTGLNFSNYTDIEVKEKLYNINTWEDYIKANKECNILLEHHHHHH”, the protein production result is on record as “not failed”. Regarding “MLELIIILLFIILSAIFSASETAYTSLSIIQIQDIRKKGKSGISVYNLVQSPSKLITTILIGNNISNIVASTLTTKFVLEKYGNSALAISTGLITIIVLIFAEILPKQIAILNNEIIALSTSFFLKPLIFIFTPLIYIINKIIKKILNLFKVKTSSQMTKESIKNMLSLAGSLGILKNDSRIFMQKMLDIDQVRASEIMTHRTGVFSLSSSSKLKDVIKLIKEEGYSRIPIYKGQSREQIIGILIAKDLIEVNKKDMNKNVSQFIKPAVFVQQNKRIKDILDIMRKKQKIMAIVIDEYGGFSGILTIEDIVEKIFGAISDEYDIKEEKPLITQINDNTYSILGETTFDEIEEAIGISIKHKEYTNTIGGYLIDLLDKIPTKNETVKTNDGEYFIKEIQNNKIETITFIKSKK”, the protein production entry is “failed”.

For the origin of these results see a protein production outcome set (Wang et al. 2014).
